This note sets out measurements from patent publication US20160348147.

Data set [1] deals with T1, ELP-substrate fusion M(GVGVP)60GDGQVPMSMRGGDDEGQQDDEEGY
T1 chain: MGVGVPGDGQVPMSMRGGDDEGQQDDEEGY

For data set [2], the target named is T2, MSKGPGWGVG(VPGVG)60GDGQVPMSMRGGDDEGQQDDEE(VPGAGVPGGG)30YG fusion polypeptide.
T2 chain: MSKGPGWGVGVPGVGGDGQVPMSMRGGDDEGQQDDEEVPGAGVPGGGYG

Data set [3] concerns the target T3, A4 construct M(YPSDGRGQ)40YGDGQVPMSMRGGDEGQQDDEEGY
T3 chain: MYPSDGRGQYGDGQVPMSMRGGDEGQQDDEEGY

B1: Human MMP-1 catalytic domain (recombinant, produced in E. coli, 19.9 kDa) (protein)
chain: FVLTEGNPRWEQTHLTYRIENYTPDLPRADVDHAIEKAFQLWSNVTPLTFTKVSEGQADIMISFVRGDHRDNSPFDGPGGNLAHAFQPGPGIGGDAHFDEDERWTNNFREYNLHRVAAHELGHSLGLSHSTDIGALMYPSYTFSGDVQLAQDDIDGIQAIYGRSQNPVQP
With B1, in data set [1], the “catalytic constant (kcat) from Lineweaver-Burke plot, SDS-PAGE densitometry, 20 ng/mL enzyme, 40 C” value was found to be 8.0 ± 1.9 s⁻¹; the “mass spectrometry of the polypeptide before and after incubation with 100 ng/mL MMP-1 for 2 h at 25 C” value is listed as “most of the 1.8 kDa MMP-sensitive peptide is cleaved off the 25.4 kDa ELP”; the “optical density at 350 nm and DLS particle size after 12 h with 100 ng/mL MMP-1 at 40 C” value is “the optical density of the solution shows a dramatic increase as the solution is heated above the CMT to 45 °C”. Further, the “optical density versus temperature before and after incubation with MMP-1” value in data set [2] is reported as “Incubation of these micelles with MMP-1 enzyme is shown to result in drastic changes in optical densities at the micelle-forming transition temperature”. In data set [3], the “transition temperature of 25 µM A4 before and after incubation with 25 ng/mL MMP-1 at 37 C” value was “a change in transition temperature of A4 construct at 25 µM prior to (solid line) and after (dashed line) incubation with 25 ng/mL of MMP-1 enzyme”.
